From PMC11530598 come the findings set out here.

The target in experiment [1] is tubulin (taxol-stabilized microtubules). Nature of the experiment: TIRF intensity of HC on microtubules. As to conditions: reference: HC1-1500 + DYRK1a without ATP.
Another experiment addresses actin (filaments) (UniProt P68135). Nature of the experiment: TIRF intensity of HC on actin filaments. The settings on record: reference: HC1-1500 + DYRK1a without ATP.
Experiment [2] concerns the target taxol-stabilized microtubules (porcine brain tubulin) (porcine). Nature of the experiment: TIRF microscopy binding assay (fluorescence intensity on filaments); fluorescent MAP1B constructs in solution on taxol-stabilized microtubules held on the coverslip; titrations for KD (KD of the LC called apparent); 10 nM on WT and subtilisin-digested microtubules in the same chamber; 90 mM Hepes pH 7.4, 150 mM K-acetate, 2 mM Mg-acetate, 1 mM EGTA, 10% glycerol, 10 uM taxol.

The target of experiment [3] is subtilisin-digested microtubules (porcine brain tubulin without the C-terminal tails) (porcine). Described as above.
The target of experiment [4] is taxol-stabilized microtubules (porcine brain tubulin) (porcine).
Experiment [5] shares this target. Nature of the experiment: TIRF microscopy binding assay (fluorescence intensity on filaments); 50 nM bacterially expressed HC^1-1500 on microtubules after incubation with DYRK1a with or without ATP (37 C, 30 min).
The target of experiment [6] is actin filaments (rabbit skeletal muscle actin) (rabbit) (UniProt P68135). Nature of the experiment: TIRF microscopy binding assay (fluorescence intensity on filaments); 50 nM bacterially expressed HC^1-1500 on actin filaments after incubation with DYRK1a with or without ATP (37 C, 30 min).

Take “MAP1B (heavy chain HC, light chain LC/LC1) HC 1-1500 (from UniProt P14873) HC1-1500 + DYRK1a with ATP”: the figures for the other: percent reduction (in experiment [1]; with actin (filaments)) were 21% and 75%, respectively.
In the case of “MAP1B HC MTBD^639-767 (from UniProt P14873 639-767) (domain or fragment)”, in experiment [2], the Kd was 13.6 nM.
Same read-out and setting: with “MAP1B HC^1-2202-sfGFP (full-length MAP1B heavy chain) (from UniProt P14873 1-2202) (domain or fragment)” the figure was 3.8 nM.
For the substance “MAP1B LC 2203-2464-sfGFP (from UniProt P14873 2203-2464) (domain or fragment)”, the Kd in experiment [2] is 1.5 nM. Also, in experiment [3], the percent decrease of fluorescence intensity against WT microtubules came to 87%.
As to “TMR-spastin (truncated human spastin, delta227) (from UniProt Q9UBP0 1-616) (enzyme)”, in experiment [4], the reduction of microtubule fluorescence intensity after 10 min with spastin (severing) in the presence of 10 nM LC-sfGFP; 82% with spastin alone stood at 19% and the reduction of microtubule fluorescence intensity after 10 min with spastin (severing) in the presence of 50 nM sfGFP-HC^1-1500; 82% with spastin alone is 60%.
With “sfGFP-MAP1B HC^1-532 (from UniProt P14873 1-532) (domain or fragment)”, the Kd in experiment [2] was determined as 185 nM.
The same measure, in the same setting: next, “sfGFP-MAP1B HC^1-1103 (from UniProt P14873 1-1103) (domain or fragment)”: 1.1 nM.
For the substance “sfGFP-MAP1B HC^1-1500, bacterially expressed (from UniProt P14873 1-1500) (domain or fragment)”, the Kd in experiment [2] stood at 1.8 nM. In experiment [3], the percent decrease of fluorescence intensity against WT microtubules was 45%.
Consider “sfGFP-MAP1B HC^1-1500, bacterially expressed, phosphorylated by DYRK1a (from UniProt P14873 1-1500) (domain or fragment)”, for which, in experiment [5], the percent reduction of fluorescence intensity on microtubules against the sample without ATP worked out at 21%. In experiment [6], this substance registered a percent reduction of fluorescence intensity on actin filaments against the sample without ATP of 75%.
